A protein production outcome set (Wang et al. 2014)

Assay: label from the status in PepcDB records

Row | Sequence | protein production
1 | MKYLAGIVTFNPNIERLDQNIRAIYPQVSHIYIVDNGSKNKEEISQLVADYNEEGHLTVDYLTENKGIAYALNCIGQFAVAQEFDWFLTLDQDSVVLGDLIDNYENYLHLPKVGMLSCLYQDMNRENLVMQEFDYKEIEECITSAALMKTSVFEETSGFAEEMFIDFVDSEMNYRLSEMGYKTYQVNFIGLLHEIGHSSRVKKFGHVFHVLNHSPFRKYYMIRNAIYIIKKYGKKKRYKYLVFMRNEFVRVLVAEEQKSKKIVAMIKGLKDGLLMKVDKYGKLEHHHHHH | not failed
2 | MIYPDETMLYAPVEWHDCSEGYTDIRYEKSTDGIAKITINRPQVRNAFRPLTVKEMIQALADARYDDNVGVIILTGEGDKAFCAGGDQKVRGDYGGYQDDSGVHHLNVLDFQRQIRTCPKPVVAMVAGYSIGGGHVLHMMCDLTIAAENAIFGQTGPKVGSFDGGWGASYMARIVGQKKAREIWFLCRQYDAQQALDMGLVNTVVPLADLEKETVRWCREMLQNSPMALRCLKAALNADCDGQAGLQELAGNATMLFYMTEEGQEGRNAFNQKRQPDFSKFKRNP | not failed
3 | MTKLSDRLMEIYRLINQAARVADIGTDHAAIPIALLETNKSSFLVATDIGLGPLEKAKEQIELADLDQAKQIVLRLGDGLSVIKASDKIDTVVIAGMGGELIAKIISKIPDYLKNAKFILQPNNEEIDVRKAIEKNGQYIETEKIIYENRHFYEIIVAKRSQQGIVKMTNRELRFGPCLLKHRTSTFKNKWQERLDHSKQIEKILEKSLRTSTKRYDSLQAEIKTIEEALK | not failed
4 | SPKMDVHETDHEVILECDIPGLESKEDLQIDVEPRSVRIEGRIKRSKEVHDERFYRREREIGHFRRVVPLPAEVAEDDIRAAYRNGVLEVRMRKRLDDRRRTIDVEFH | failed
5 | MSAGLTGIRVAVIGGDDREIYMIPELQKLGAYIVGVGFEKAAPIQGVTLLSSPLEAVEKADVLLFPMYGTDERGDVKAKYSETPIVLNKELLKAVSPKVPLFIGWARPALKSAAEMLGIQIVETANLDQLAILNSIPSAEGAIQMAMEASPITIHGSESFVLGLGRCGWTLARTLKGMGAHVTGVARKPADLARALEMGLEAVHFADLDEKIGKAELIFNTVPHLILDKVMLEQVNHEAVIIDIASLPGGTDFEYAKAKGIKAMLAPGLPGKVAPKAAGKILAQVYPQLILRHLTTKNASLKF | failed
6 | MSNFSEGEIFIANIEKKSLECRENDEIVVLKICELCNIIYPIFNKIFGNGFVGDTLKKDLKNSSSQVQRAIEKFPEETKYVSMLYSYNINKYENMEKLKRDLDNGIISFLWMKRTLEFIITFLEKCYITCSETKLSICAQEAYNEVLKKYHGFITSKIVKLCLKLSPTKDILTKKLGFQTHQQASTVLQKCLSITKPLVRDISVTIEKFNCDFEEKI | failed
7 | QWDITLIGHEDDLSQLSHEKLSKLAACIEYSPYPMVEIDYFGNLTYLNTATKEKFPSIQKDSMAHPLLKDIIPQREDTPIYYLRTREVQIGDKFYEQHIHYPAESQFIRSYIFDITERKVIEQSIHYQAFYDPLTDLPNRFLFKQELGKVLSNVQNQSSVLGLVLLGFRELQSLNDLLG | failed
8 | GQLAQDGVPEWFHGAISREDAENLLESQPLGSFLIRVSHSHVGYTLSYKAQSSCCHFMVKLLDDGTFMIPGEKVAHTSLDALVTFHQQKPIEPRRELLTQPCRQKD | not failed
9 | QKYQALLANNVENTAKEALHQLAYTGREYNNIQDQIETISDLLGHSQSLYDYLREPSKANLTILENMWSSVARNQKLYKQIRFLDTSGTEKVRIKYDFKTSIAGPSLILRDKSAREYFKYAQSLDNEQISAWGIELERDKGELVYPLSPSLRILMPISVNDVRQGYLVLNVDIEYLSSLLNYSPVRDFHIELVKHKGFYIASPDESRLYGDIIPERSQFNFSNMYPDIWPRVVSEQAGYSYSGEHLIAFSSIKFVSNEPLHLIIDLSNEQLSKRATRDINDLIQES | not failed
10 | MKNVEVLTGDPKKAILKLSAPMVVSNLIFTLYNLVDGIWVAGLGPDALSAVGLFFPIFFVFIAISFGLSVGANSAVSRRIGAKRYDAACVAATLAVAMGILVSIPMTLSVVFLNGVMVFLGADGEILRLAVDYGSIMVLGSVFLVFSNVSAGILNGEGNARMAMYANAAGSLLNMVLDPIFIYLLGYGIAGAAIASVISMALSSIVFSFWFLSGRSYVRFRVAGWNLPTVFDLLRVGMPASLSMLTMSVAFMLINRVVIETGGSEGLAAYTSAWRLIQFGFVPLFGVSAALTAVSGAAYGARNPRKIGESLNYTVKLLLAVDAAILALMVAFAPQIALIFTYTEVSAVMYEEIVRTIRIAAFVLLFAPLGVSSSAVFQGMGKGERSFAITVLRAIVFQVSLCYVLAVPFGFDGVLLGFVLGEALGCFTGFSWVRLTVRRLERCLLST | failed
11 | MSKPKIAIIVGSTRAARFADVPTQWIAKIAKSHADIDVEVVDLRDFPLPFFDEVASSAWVPSTNEVAQRWQKKVAEFDGFIFTAAEYNHGPTAVLKNAIDYAANEWNKKPAGFVGYGSVGGARAVEQLRLHAVELQMAPVKSAVHIAWGDFLAVRQGEKKLEDLDHLNQAASALVNDVAWWAKALKKARAADVVDEEIKAA | failed
12 | MDIKRYCPVTDSELPADHVYFKFRSEIEAAEAYLGLAISEGIKVRETREILDIIDTVYNSLSDPESKLNDFQEKRLNFTEEDWYDIKEKANNGNRWSLYMFLARSAVDSAVYWSYRMKETEEFKEIVKEEMISKLLKAGYVILRESLGEVRL | not failed
13 | MKITMRVSVPLSPRQAASQPVPSHRCLHVWPFIRPSLLRPELTMPSGCRCLNLVCLLCILGATSQPARADDCSSHCDLAHGCCAPDGSCRCDPGWEGLHCERCVRMPGCQHGTCHQPWQCICHSGWAGKFCDKDEHICTSQSPCQNGGQCVYDGGGEYHCVCLPGFHGRGCERKAGPCEQAGFPCRNGGQCQDNQGFALNFTCRCLAGFMGAHCEVNVDDCLMRPCANGATCIDGINRFSCLCPEGFAGRFCTINLDDCASRPCQRGARCRDRVHDFDCLCPSGYGGKTCELVLPAPEPASVGTPQMPTSAVVVPATGPAPHSAGAGLLRISVKEVVRRQESGLGESSLVALVVFGSLTAALVLATVLLTLRAWRRGICPTGPCCYPAPHYAPARQDQECQVSMLPAGFPLSPDLPPEPGKTTAL | failed
14 | MKDEVQLKKYLPSLIFAIILPVIAYLFLKMLGNSDTLALGIATAFPVVHMLWSLIRKKELNPVSLVAIIGFLISLLAVYLTHGNNLAFKLWHPILTAAIGTIFLLSVLLNRPLLELASEGENHRKMLIMTLFMGLVFIFHALSVILLAFFVETTAFVLLSKVIDFSAVGVLVLGLAFLRKKLN | failed
15 | MAEDKTKPSELDQGKYDADDNVKIICLGDSAVGKSKLMERFLMDGFQPQQLSTYALTLYKHTATVDGRTILVDFWDTAGQERFQSMHASYYHKAHACIMVFDVQRKVTYRNLSTWYTELREFRPEIPCIVVANKIDADINVTQKSFNFAKKFSLPLYFVSAADGTNVVKLFNDAIRLAVSYKQNSQDFMDEIFQELENFSLEQEEEDVPDQEQSSSIETPSEEAASPHS | not failed
16 | MRVDIWSDVVCPFCYIGKKRLEHVAAEAGIELDVHWHSFELDPDAPTSHDTSNTERLAKKYGRTFEEMQEMQQNIASMAAQEGIDFQWQKANSGNSFNAHRIIHLAQSKGLGNEAEEAFFHAYMTEGLAIGEREVVEEIASRIGLDHAEVEFVLDSNELSDFVRHDEKIAHEQLNISGVPFFVFDQKLALSGAQPKEVFLQVLQKALTQRENDAVAEASSDAVCSDDSCDIPQKS | failed
17 | YESIDLKAVLFDMDGVLFDSMPNHAESWHKIMKRFGFGLSREEAYMHEGRTGASTINIVSRRERGHDATEEEIKAIYQAKTEEFNKCPKAERMPGALEVLTKIKSEGLTPMVVTGSGQTSLLDRLNHNFPGIFQANLMVTAFDVKYGKPNPEPYLMALKKGGFKPNEALVIENAPLGVQAGVAAGIFTIAVNTGPLHDNVLLNEGANLLFHSMPDFNKNWETLQSALKQ | failed
18 | MNHFTPAQQRKALGYLVLFHLVIIASSNYLVQIPFTIFGFHTTWGAFTFPFIFLATDLTVRIFGAGLARKIIFLVMLPALAVSYLLSVVFFEGQYQGLAPLSEFNLFVARIAIASFMAYLLGQIMDVHVFNRLRQMKQWWVAPTCSTLFGNALDTIAFFSIAFYQSSDPFMAEHWTEIALVDYTFKLIISLGLFVPMYGVLLNYLIKKLTAVNPNFAMASAKA | failed
19 | MLPHYKQQAVIDSGLAAVGFRPENQRIYPNGSLAAHILGAVDIDNFGIAGIEKWIDANWLADLRGAGLALKGRDLQPVELSIDLRVQYAMEQELGKAVKKFGAAAGAGLLLDVTNGEILALASYPAFDPNNPVDAFKPDRINRVTAGVFEMGSTFKALTTAMALESGRFDLESVVDASRPLSFGRQRIHDYRGKYRPLTVPEAFIHSSNIVMAKMAMTLGPEALRTFLGRFGVLSQLATELPESAAPLRPSSWSEVTTATVSFGHGIAVTPLQASMAVAALANGGRLIRPTFIKDSPVSERTIAESLLSANTSEAIRHLLRLNAAVGSATKADVPGYVIGGKTGTAEKVVQGRYSKVLNVTSFMGIVPADNPRYLLLTLLDEPRGLAETYGNRTSGWNAVPLGGALLHRILPMLLKPVFPSPSSAEAVPVATGEPSVDDSSSD | failed
20 | MDMKTKLQTIIGMFQITAWDETSYFESDNGAKLTQAVITQSYQGVLQGHSEIRYLMSYQDNANATFVGFEHFTGSLGDKKGSFILQHKGLFAAGVASSEFELVERSATGDFVHLVGKGHFVSTENGQANYQITLQDS | not failed
21 | MMSQISLADLNAADKADFVAALANVVEYSPWIAEKLAGQRPFTGINQLHAALMAAIQSAEPDVQLALIRAHPDLANKTQRAAGLTAESTDEQNSAGLDRLSDAEYAAFERVNNAYREKFGFPYIVCVRRHTKDSVLRDFETRLLNIAKTETRRAIEEIGRISALRLDQLVVADDKLKVHGRLSTHVLDNHAGKPAPGIPVELIELASLGESRVIARTVTNADGRTDQPLIGGRPLPIGRYELRFRVAKYYAERNVPLSEPPFLDEIPLRFAISEPENHYHVPLLVTPWSYATYRGS | failed
22 | MDPLLVTVITTCGKVFQFHVDRRRNVGYLKKRISKEGKGFPEVDDQEILFKGEKLDDNRIIDGICKDGNSVIHLLVKKS | not failed
23 | MQNPRRICVADPNHRLSQKRFTRNSRDIFICPDCGCIMADVDFDHDQYESGDYYTMQHKTVQSIEEVWGFRWRYILDQILKINGRSSLLDVGAGNGYFVALASREFSFDASGLEISQEEVQFAADVLNIGLIREDLTQHNLDYDVVTCLNVLEHVVDPQLFLSHLVNRVKPGGLLVITTPNPACIHRKVKGLKNWNMIAPPHHINLFTKESLYILLMRYGLIQLDYQTISTYVNFVRGFDTENLLLRRLFFNLLKIFDLGADHFFIVKKPSQC | failed
24 | MPYTVRFTTTARRDLHKLPPRILAAVVEFAFGDLSREPLRVGKPLRRELAGTFSARRGTYRLLYRIDDEHTTVVILRVDHRADIYRR | not failed
25 | MPGFNYGGDQDEVYTPYRRVLVTGATGLLGRAVYKEFKNNDWDALGCGYNRARPFFLKCNLLDEDAVRGVIQSFQPHVIVHCAAERRPDVVERHTEAAMNLNVHACATLAKEAGGSFLIYISTDYVFDGRNPPYGENDAPNPLNLYGKSKLEGEREILRHCPGAAVLRVPILFGEVEKVEESAVTVLFERVQEGAESCTIDHCQQRFPTYTNDVARVCRNMAERALQDQSLRGIFHYSAKEQMTKYEMTCAIADAFNLPSSHLIPMTEQPAGAGAQRPQNAQLECSRLELLGLSVESTPFKNAIRDSLWPFQHDKRWRQTVFH | not failed
